From US20160272683A1 (Novo Nordisk, published 2016) come the findings set out here.

Numbered stars: 1 amine (or outer) side, 2 acyl side, 3 side chain; on linkers, the order of the positions; unused ones are H or OH. * marks the point of attachment. C20 diacid = O=C(O)CCCCCCCCCCCCCCCCCCC(=O)*; C18 diacid = O=C(O)CCCCCCCCCCCCCCCCC(=O)*; γGlu = O=C(O)[C@H](CCC(=O)[*:2])N[*:1]

To fix the notation:
B1: [N-terminal(C18 diacid), 9V, 28P]mimylin (peptide)
peptide: {C18 diacid}-EASELSTAVLGRLSAELHELATLPRTEPGPESP-NH2
SMILES: CC(C)C[C@H](NC(=O)[C@H](CCC(=O)O)NC(=O)[C@H](Cc1c[nH]cn1)NC(=O)[C@H](CC(C)C)NC(=O)[C@H](CCC(=O)O)NC(=O)[C@H](C)NC(=O)[C@H](CO)NC(=O)[C@H](CC(C)C)NC(=O)[C@H](CCCNC(=N)N)NC(=O)CNC(=O)[C@H](CC(C)C)NC(=O)[C@@H](NC(=O)[C@H](C)NC(=O)[C@@H](NC(=O)[C@H](CO)NC(=O)[C@H](CC(C)C)NC(=O)[C@H](CCC(=O)O)NC(=O)[C@H](CO)NC(=O)[C@H](C)NC(=O)[C@H](CCC(=O)O)NC(=O)CCCCCCCCCCCCCCCCC(=O)O)[C@@H](C)O)C(C)C)C(=O)N[C@@H](C)C(=O)N[C@H](C(=O)N[C@@H](CC(C)C)C(=O)N1CCC[C@H]1C(=O)N[C@@H](CCCNC(=N)N)C(=O)N[C@H](C(=O)N[C@@H](CCC(=O)O)C(=O)N1CCC[C@H]1C(=O)NCC(=O)N1CCC[C@H]1C(=O)N[C@@H](CCC(=O)O)C(=O)N[C@@H](CO)C(=O)N1CCC[C@H]1C(N)=O)[C@@H](C)O)[C@@H](C)O
notes: also called Ex. #32
B2: [N-terminal(C18 diacid), 20I]mimylin (peptide)
peptide: {C18 diacid}-EASELSTAALGRLSAELHEIATLPRTETGPESP-NH2
SMILES: CC[C@H](C)[C@H](NC(=O)[C@H](CCC(=O)O)NC(=O)[C@H](Cc1c[nH]cn1)NC(=O)[C@H](CC(C)C)NC(=O)[C@H](CCC(=O)O)NC(=O)[C@H](C)NC(=O)[C@H](CO)NC(=O)[C@H](CC(C)C)NC(=O)[C@H](CCCNC(=N)N)NC(=O)CNC(=O)[C@H](CC(C)C)NC(=O)[C@H](C)NC(=O)[C@H](C)NC(=O)[C@@H](NC(=O)[C@H](CO)NC(=O)[C@H](CC(C)C)NC(=O)[C@H](CCC(=O)O)NC(=O)[C@H](CO)NC(=O)[C@H](C)NC(=O)[C@H](CCC(=O)O)NC(=O)CCCCCCCCCCCCCCCCC(=O)O)[C@@H](C)O)C(=O)N[C@@H](C)C(=O)N[C@H](C(=O)N[C@@H](CC(C)C)C(=O)N1CCC[C@H]1C(=O)N[C@@H](CCCNC(=N)N)C(=O)N[C@H](C(=O)N[C@@H](CCC(=O)O)C(=O)N[C@H](C(=O)NCC(=O)N1CCC[C@H]1C(=O)N[C@@H](CCC(=O)O)C(=O)N[C@@H](CO)C(=O)N1CCC[C@H]1C(N)=O)[C@@H](C)O)[C@@H](C)O)[C@@H](C)O
notes: also called Ex. #12
B3: [N-terminal(C18 diacid), 9V]mimylin (peptide)
peptide: {C18 diacid}-EASELSTAVLGRLSAELHELATLPRTETGPESP-NH2
SMILES: CC(C)C[C@H](NC(=O)[C@H](CCC(=O)O)NC(=O)[C@H](Cc1c[nH]cn1)NC(=O)[C@H](CC(C)C)NC(=O)[C@H](CCC(=O)O)NC(=O)[C@H](C)NC(=O)[C@H](CO)NC(=O)[C@H](CC(C)C)NC(=O)[C@H](CCCNC(=N)N)NC(=O)CNC(=O)[C@H](CC(C)C)NC(=O)[C@@H](NC(=O)[C@H](C)NC(=O)[C@@H](NC(=O)[C@H](CO)NC(=O)[C@H](CC(C)C)NC(=O)[C@H](CCC(=O)O)NC(=O)[C@H](CO)NC(=O)[C@H](C)NC(=O)[C@H](CCC(=O)O)NC(=O)CCCCCCCCCCCCCCCCC(=O)O)[C@@H](C)O)C(C)C)C(=O)N[C@@H](C)C(=O)N[C@H](C(=O)N[C@@H](CC(C)C)C(=O)N1CCC[C@H]1C(=O)N[C@@H](CCCNC(=N)N)C(=O)N[C@H](C(=O)N[C@@H](CCC(=O)O)C(=O)N[C@H](C(=O)NCC(=O)N1CCC[C@H]1C(=O)N[C@@H](CCC(=O)O)C(=O)N[C@@H](CO)C(=O)N1CCC[C@H]1C(N)=O)[C@@H](C)O)[C@@H](C)O)[C@@H](C)O
notes: also called Ex. #9
B4: [N-terminal(C18 diacid), 32H]mimylin (peptide)
peptide: {C18 diacid}-EASELSTAALGRLSAELHELATLPRTETGPEHP-NH2
SMILES: CC(C)C[C@H](NC(=O)[C@H](C)NC(=O)[C@H](C)NC(=O)[C@@H](NC(=O)[C@H](CO)NC(=O)[C@H](CC(C)C)NC(=O)[C@H](CCC(=O)O)NC(=O)[C@H](CO)NC(=O)[C@H](C)NC(=O)[C@H](CCC(=O)O)NC(=O)CCCCCCCCCCCCCCCCC(=O)O)[C@@H](C)O)C(=O)NCC(=O)N[C@@H](CCCNC(=N)N)C(=O)N[C@@H](CC(C)C)C(=O)N[C@@H](CO)C(=O)N[C@@H](C)C(=O)N[C@@H](CCC(=O)O)C(=O)N[C@@H](CC(C)C)C(=O)N[C@@H](Cc1c[nH]cn1)C(=O)N[C@@H](CCC(=O)O)C(=O)N[C@@H](CC(C)C)C(=O)N[C@@H](C)C(=O)N[C@H](C(=O)N[C@@H](CC(C)C)C(=O)N1CCC[C@H]1C(=O)N[C@@H](CCCNC(=N)N)C(=O)N[C@H](C(=O)N[C@@H](CCC(=O)O)C(=O)N[C@H](C(=O)NCC(=O)N1CCC[C@H]1C(=O)N[C@@H](CCC(=O)O)C(=O)N[C@@H](Cc1c[nH]cn1)C(=O)N1CCC[C@H]1C(N)=O)[C@@H](C)O)[C@@H](C)O)[C@@H](C)O
notes: also called Ex. #18
B5: [N-terminal(C18 diacid), 18A]mimylin (peptide)
peptide: {C18 diacid}-EASELSTAALGRLSAELAELATLPRTETGPESP-NH2
SMILES: CC(C)C[C@H](NC(=O)[C@H](C)NC(=O)[C@H](C)NC(=O)[C@@H](NC(=O)[C@H](CO)NC(=O)[C@H](CC(C)C)NC(=O)[C@H](CCC(=O)O)NC(=O)[C@H](CO)NC(=O)[C@H](C)NC(=O)[C@H](CCC(=O)O)NC(=O)CCCCCCCCCCCCCCCCC(=O)O)[C@@H](C)O)C(=O)NCC(=O)N[C@@H](CCCNC(=N)N)C(=O)N[C@@H](CC(C)C)C(=O)N[C@@H](CO)C(=O)N[C@@H](C)C(=O)N[C@@H](CCC(=O)O)C(=O)N[C@@H](CC(C)C)C(=O)N[C@@H](C)C(=O)N[C@@H](CCC(=O)O)C(=O)N[C@@H](CC(C)C)C(=O)N[C@@H](C)C(=O)N[C@H](C(=O)N[C@@H](CC(C)C)C(=O)N1CCC[C@H]1C(=O)N[C@@H](CCCNC(=N)N)C(=O)N[C@H](C(=O)N[C@@H](CCC(=O)O)C(=O)N[C@H](C(=O)NCC(=O)N1CCC[C@H]1C(=O)N[C@@H](CCC(=O)O)C(=O)N[C@@H](CO)C(=O)N1CCC[C@H]1C(N)=O)[C@@H](C)O)[C@@H](C)O)[C@@H](C)O
notes: also called Ex. #13
B6: [N-terminal(C18 diacid), 17I]mimylin (peptide)
peptide: {C18 diacid}-EASELSTAALGRLSAEIHELATLPRTETGPESP-NH2
SMILES: CC[C@H](C)[C@H](NC(=O)[C@H](CCC(=O)O)NC(=O)[C@H](C)NC(=O)[C@H](CO)NC(=O)[C@H](CC(C)C)NC(=O)[C@H](CCCNC(=N)N)NC(=O)CNC(=O)[C@H](CC(C)C)NC(=O)[C@H](C)NC(=O)[C@H](C)NC(=O)[C@@H](NC(=O)[C@H](CO)NC(=O)[C@H](CC(C)C)NC(=O)[C@H](CCC(=O)O)NC(=O)[C@H](CO)NC(=O)[C@H](C)NC(=O)[C@H](CCC(=O)O)NC(=O)CCCCCCCCCCCCCCCCC(=O)O)[C@@H](C)O)C(=O)N[C@@H](Cc1c[nH]cn1)C(=O)N[C@@H](CCC(=O)O)C(=O)N[C@@H](CC(C)C)C(=O)N[C@@H](C)C(=O)N[C@H](C(=O)N[C@@H](CC(C)C)C(=O)N1CCC[C@H]1C(=O)N[C@@H](CCCNC(=N)N)C(=O)N[C@H](C(=O)N[C@@H](CCC(=O)O)C(=O)N[C@H](C(=O)NCC(=O)N1CCC[C@H]1C(=O)N[C@@H](CCC(=O)O)C(=O)N[C@@H](CO)C(=O)N1CCC[C@H]1C(N)=O)[C@@H](C)O)[C@@H](C)O)[C@@H](C)O
notes: also called Ex. #11
B7: [N-terminal(C20 diacid-gGlu), 1A, 23Y, 30S, 31G]mimylin (peptide)
peptide: {C20 diacid-γGlu}-AASELSTAALGRLSAELHELATYPRTETGSGSP-NH2
SMILES: CC(C)C[C@H](NC(=O)[C@H](C)NC(=O)[C@H](C)NC(=O)[C@@H](NC(=O)[C@H](CO)NC(=O)[C@H](CC(C)C)NC(=O)[C@H](CCC(=O)O)NC(=O)[C@H](CO)NC(=O)[C@H](C)NC(=O)[C@H](C)NC(=O)CC[C@H](NC(=O)CCCCCCCCCCCCCCCCCCC(=O)O)C(=O)O)[C@@H](C)O)C(=O)NCC(=O)N[C@@H](CCCNC(=N)N)C(=O)N[C@@H](CC(C)C)C(=O)N[C@@H](CO)C(=O)N[C@@H](C)C(=O)N[C@@H](CCC(=O)O)C(=O)N[C@@H](CC(C)C)C(=O)N[C@@H](Cc1c[nH]cn1)C(=O)N[C@@H](CCC(=O)O)C(=O)N[C@@H](CC(C)C)C(=O)N[C@@H](C)C(=O)N[C@H](C(=O)N[C@@H](Cc1ccc(O)cc1)C(=O)N1CCC[C@H]1C(=O)N[C@@H](CCCNC(=N)N)C(=O)N[C@H](C(=O)N[C@@H](CCC(=O)O)C(=O)N[C@H](C(=O)NCC(=O)N[C@@H](CO)C(=O)NCC(=O)N[C@@H](CO)C(=O)N1CCC[C@H]1C(N)=O)[C@@H](C)O)[C@@H](C)O)[C@@H](C)O
notes: also called Ex. #57

For the assay, the target named is T1, human calcitonin receptor (human, UniProt P30988 25-474).
T1 construct: whole, on cells; also called hCT-R; hCTR
T1 sequence (looked up): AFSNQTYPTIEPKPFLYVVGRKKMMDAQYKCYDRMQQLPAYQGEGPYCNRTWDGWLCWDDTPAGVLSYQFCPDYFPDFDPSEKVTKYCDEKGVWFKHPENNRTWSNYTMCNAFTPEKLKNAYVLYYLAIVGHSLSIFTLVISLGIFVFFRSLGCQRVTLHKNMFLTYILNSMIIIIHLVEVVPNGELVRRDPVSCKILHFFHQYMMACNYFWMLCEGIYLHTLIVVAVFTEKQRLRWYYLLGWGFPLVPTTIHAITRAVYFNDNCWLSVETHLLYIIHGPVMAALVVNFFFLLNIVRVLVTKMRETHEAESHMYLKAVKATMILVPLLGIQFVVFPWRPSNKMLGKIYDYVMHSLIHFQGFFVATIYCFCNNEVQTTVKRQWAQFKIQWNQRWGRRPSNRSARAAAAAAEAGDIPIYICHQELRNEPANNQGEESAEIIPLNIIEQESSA
Put plainly: whole-cell competition vs 125I-human calcitonin (Assay VIIa). The method, boiled down: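 BHK tk'ts 13 cells stably co-expressing human calcitonin receptor and a CRE-luciferase reporter, seeded overnight at 37 °C. Bound tracer counted by scintillation after cold HBSS washes and NaOH/SDS lysis; IC₅₀ from one-site competition fit taken as receptor affinity.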
With B1, the IC50 amounted to 3.35 nM.
For the molecule {C20 diacid}-EASELSTAALGRLSAELHELATLPRTETGSGSP-NH2 (also called Ex. #22) [[N-terminal(C20 diacid), 30S, 31G]mimylin], the IC50 stood at 0.188 nM.
Take B2: the IC50 was 0.419 nM.
On to B3, for which the IC50 stood at 0.736 nM.
With B4, the IC50 amounted to 1.17 nM.
On to B5, for which the IC50 was 0.279 nM.
{C18 diacid}-EASELSTAALGRLSAELHELATLPRTETGSGSP-NH2 (also called Ex. #21) [[N-terminal(C18 diacid), 30S, 31G]mimylin]: the IC50 is 0.315 nM.
As to B6, the IC50 was determined as 1.37 nM.
The result for B7 reads 2.54 nM.
